Experimental data taken from PMC7764960, “Nucleus Accumbens-Associated Protein 1 Binds DNA Directly through the BEN Domain in a Sequence-Specific Manner”.

Experiments:
NAC1 (322-485) [1] = target: T1, NAC1 (322-485) (Homo sapiens, UniProt Q96RE7 322-485); assay: ITC; first of two sequential events (Kd1); ITC: 20 mM HEPES pH 7.0, 0.1 M NaCl, 1 mM TCEP, 20 C (Fig 2 legend says 25 C); pull-down: 4 C with 10 ug poly(dI/dC), buffer not stated; NMR 298 K; settings: protein: recombinant; tags: His (pET28HisTEV); blunt
T1 sequence: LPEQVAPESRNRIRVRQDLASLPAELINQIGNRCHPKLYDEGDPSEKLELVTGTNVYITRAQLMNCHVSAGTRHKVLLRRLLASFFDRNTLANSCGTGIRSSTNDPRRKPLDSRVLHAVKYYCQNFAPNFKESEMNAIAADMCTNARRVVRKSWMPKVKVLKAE

GST-NAC1 = target: T2, GST-NAC1 (Homo sapiens, UniProt Q96RE7 2-527); assay: pull-down; poly(dI/dC); ITC: 20 mM HEPES pH 7.0, 0.1 M NaCl, 1 mM TCEP, 20 C (Fig 2 legend says 25 C); pull-down: 4 C with 10 ug poly(dI/dC), buffer not stated; NMR 298 K; settings: protein: recombinant; tags: GST N-term; chain copies: 2; label: 5' biotin on sense strand; blunt
T2 sequence: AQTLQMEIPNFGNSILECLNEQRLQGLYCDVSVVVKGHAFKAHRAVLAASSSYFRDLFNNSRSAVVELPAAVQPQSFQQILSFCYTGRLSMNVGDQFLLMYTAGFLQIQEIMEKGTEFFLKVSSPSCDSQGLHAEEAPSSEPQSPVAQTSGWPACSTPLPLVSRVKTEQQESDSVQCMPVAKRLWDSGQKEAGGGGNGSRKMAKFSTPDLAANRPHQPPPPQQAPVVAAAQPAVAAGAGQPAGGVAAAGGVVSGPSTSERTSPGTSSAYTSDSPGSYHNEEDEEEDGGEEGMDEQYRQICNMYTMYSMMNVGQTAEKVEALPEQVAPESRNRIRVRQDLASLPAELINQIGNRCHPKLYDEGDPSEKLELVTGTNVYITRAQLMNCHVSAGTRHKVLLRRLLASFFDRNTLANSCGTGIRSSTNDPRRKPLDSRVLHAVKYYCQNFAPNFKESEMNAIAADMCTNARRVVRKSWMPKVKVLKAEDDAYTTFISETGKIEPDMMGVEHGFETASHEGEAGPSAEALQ

NAC1 (322-485) [2] = target: T1, NAC1 (322-485); assay: ITC; single event; ITC: 20 mM HEPES pH 7.0, 0.1 M NaCl, 1 mM TCEP, 20 C (Fig 2 legend says 25 C); pull-down: 4 C with 10 ug poly(dI/dC), buffer not stated; NMR 298 K; settings: protein: recombinant; tags: His (pET28HisTEV); blunt
NAC1 (322-485) [3] = target: T1, NAC1 (322-485); assay: ITC; single event; Table S2 prints 0.83; ITC: 20 mM HEPES pH 7.0, 0.1 M NaCl, 1 mM TCEP, 20 C (Fig 2 legend says 25 C); pull-down: 4 C with 10 ug poly(dI/dC), buffer not stated; NMR 298 K; settings: protein: recombinant; tags: His (pET28HisTEV); blunt

B1: GP1 14-mer dsDNA (dsDNA)
DNA 1: GTATGCATGTATGT
DNA 2: ACATACATGCATAC
- Kd (NAC1 (322-485) [1]): 160 nM

B2: Biotin-GP1 5'-mut (dsDNA)
DNA 1: TGTGTGTGTCATCATGTATGTATTTATT
DNA 2: AATAAATACATACATGATGACACACACA
- binding result (GST-NAC1): binds

B3: Biotin-GP1 3'-mut (dsDNA)
DNA 1: TGTGTGTGTATGCATGACGGTATTTATT
DNA 2: AATAAATACCGTCATGCATACACACACA
- binding result (GST-NAC1): binds

B4: de novo motif 1 (dsDNA)
DNA 1: AACCGCCGCCAA
DNA 2: TTGGCGGCGGTT
- Kd (NAC1 (322-485) [2]): 3000 nM

B5: de novo motif 2 (dsDNA)
DNA 1: AACCCCGCCCCAA
DNA 2: TTGGGGCGGGGTT
- Kd (NAC1 (322-485) [3]): 820 nM

B6: Biotin-GP1 (dsDNA)
DNA 1: TGTGTGTGTATGCATGTATGTATTTATT
DNA 2: AATAAATACATACATGCATACACACACA
- binding result (GST-NAC1): binds
